Paper PMC10465357

Each substance was assayed against 14-3-3 proteins (assay: Western blot of purified virions, quantified). Conditions: read off a plot.

**Q.** How did the ratio to parent turn out when UL32 (also known as pp150) 4/5mut was run?
**A.** 0.02

**Q.** UL32 (also known as pp150) 3/4mut was tested. Which ratio to parent did it give?
**A.** 0.06

**Q.** With UL32 (also known as pp150) 3mut as the substance, how does the ratio to parent read?
**A.** 0.48
